From patent US20200079854A1 (Johns Hopkins, published 2020)

Molecular target: T1, KRAS wt(7-16) peptide … with HLA-A3 and b2M on cells (human)
T1 construct: peptide-pulsed T2A3 cells in flow cytometry
Assay: flow cytometry, phage-displayed scFv on peptide-pulsed T2A3 cells (FIG. 6)
Experimental: Cells were stained with 10 μL of precipitated phage per 100 μL of cells, washed and stained with rabbit anti-M13 antibody, then washed and stained with anti-Rabbit-PE antibody. Cells were stained with a live/dead Near-IR dye, washed, and analyzed by an LSRII flow cytometer.
The pulsed cells were pelleted, washed once in cold stain buffer (PBS containing 0.5% BSA, 2 mM EDTA, and 0.1% sodium azide), and resuspended in 100 μL of stain buffer. Phage staining was performed on ice with 10 uL (approximately 1×10⁹) phage for 1 hour in 100 uL total volume, followed by one 4 mL wash in cold stain buffer. Cells were then stained with 1 uL of rabbit anti-M13 antibody (Pierce, Rockford, Ill.) in 100 uL total volume on ice for 1 hour and washed once with 4 mL of cold stain buffer. Cells were stained with anti-rabbit-PE (Biolegend) on ice for 1 hour in 100 uL total volume, followed by incubation with LIVE/DEAD Fixable Near-IR Dead Cell Stain (Thermo Fisher) for 10 min at room temperature per manufacturer's instructions. Cells were washed once in 4 mL of stain buffer followed by resuspension in 300 uL of stain buffer before analysis. Stained cells were analyzed using an LSRII flow cytometer (Becton Dickinson, Mansfield, Mass.).

B1: KRAS_G12CDV_A3_c118 (scFv)
scFv: DIQMTQSPSSLSASVGDRVTITCRASQDVNTAVAWYQQKPGKAPKLLIYSASFLYSGVPSRFSGSRSGTDFTLTISSLQPEDFATYYCQQYYYPPITFGQGTKVEIKRTGGGSGGGGSGGGASEVQLVESGGGLVQPGGSLRLSCAASGFNVSHTGMHWVRQAPGKGLEWVAVVGPGKGYTYYADSVKGRFTISADTSKNTAYLQMNSLRAEDTAVYYCSRKTYYAFDYWGQGTLVTVSS
B1: no binding.

B2: KRAS_G12CDV_A3_c19 (scFv)
scFv: DIQMTQSPSSLSASVGDRVTITCRASQDVNTAVAWYQQKPGKAPKLLIYSASFLYSGVPSRFSGSRSGTDFTLTISSLQPEDFATYYCQQTYYSPWTFGQGTKVEIKRTGGGSGGGGSGGGASEVQLVESGGGLVQPGGSLRLSCAASGFNIRSYAMHWVRQAPGKGLEWVAQVGPGKGYTYYADSVKGRFTISADTSKNTAYLQMNSLRAEDTAVYYCSRNFQSTSHAFDYWGQGTLVTVSS
B2: no binding.
